Test results reported in patent US9567369B2, “Method of treating metastatic cancer” (A.T. Still University, priority 2012, dated 2017).
Ends that are not written are not given here.

Tests used:
[1] = system: metastatic human melanoma 1205 Lu cells; experiment: MTT growth assay of human 1205 Lu melanoma cells with peptide; type: cell-based; settings: peptide 10 uM, 1 time addition or day 1-3 addition; identical conditions as for B16
Description: B16F10 melanoma cells were obtained from the ATCC. Human 1205 Lu metastatic melanoma cell line was received from Robert Baer, PhD, a collaborator with our laboratory here at ATSU. Growth was in RPMI 1640 media supplemented with FBS (10%) and penicillin, streptomycin, amphotericin antibiotics (1%) (Sigma). Cells were maintained in a humidified incubator at 37° C. with 5% CO2.
The growth of B16F10 melanoma cells by the MTT method was performed with the addition of 10 uM peptide to the melanoma cells in standard 96-well culture plates. Cells were cultured in media for 4 days after seeding at about 1000 cells per well. After growth the culture media was replaced with media containing 0.5 mg/ml MTT solution and incubated for 4 hours at 37° C. The MTT solution was then removed and the residual dye was solubilized in 100 ul isopropanol for 15 minutes before reading the O.D. at 570 nm.

protein kinase C (PKC) = experiment: Inhibition of protein kinase C activity
papain = target: T1, papain (Carica papaya, UniProt P00784); settings: at 160 uM; cited from earlier work
T1 sequence (P00784 134-345): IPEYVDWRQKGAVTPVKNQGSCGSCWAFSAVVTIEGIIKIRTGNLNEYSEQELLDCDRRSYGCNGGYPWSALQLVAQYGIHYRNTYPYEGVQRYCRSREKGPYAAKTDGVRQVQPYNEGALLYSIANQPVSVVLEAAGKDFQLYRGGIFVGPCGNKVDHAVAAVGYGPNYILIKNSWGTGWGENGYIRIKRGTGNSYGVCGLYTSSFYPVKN

B16 melanoma cells = experiment: Boyden chamber-type migration assay, Cystatin C overexpressing clone cc6 versus control plasmid clone pc2; type: cell-based, murine; settings: B16 melanoma cells overexpressing Cystatin C (clone cc6) compared to control plasmid transfected (pc2); bFGF chemotactic factor
Description: (§1) The Cystatin C cDNA was amplified from B16F10 melanoma cells by PCR amplification of reverse transcribed total RNA isolated from B16 F10 melanoma cells in culture. The primers used for the amplification were derived from 5′ and 3′ sequences for murine Cystatin C from Solem et al. (18). The PCR product corresponding to the expected size was agarose gel purified and ligated into pcDNA3 expression plasmid for further analysis. The plasmid was sent to for sequence analysis at the University of Chicago and the sequence analysis produced a cDNA sequence which exactly matched murine Cystatin C cDNA sequence (19). Transfection of the cystatin plasmid or pcDNA3 plasmid was carried out with Lipofectamine™ reagent (Invitrogen) by the manufacturer's instructions. Isolated cell colonies, which had grown following Geneticin® (1 mg/ml) selection were trypsized in glass cloning rings and transferred to multi-well tissue culture dishes for expansion in culture.
Cells (2×104) are placed into the top well of the Boyden chamber in cell culture media while media plus bFGF chemotactic factor (25 ng/ml) is placed into the lower well of the chamber. Quantitation is through direct microscopic counting of 10-20 fields of crystal violet stained cells per filter.

[2] = system: MARCKS phosphorylation in B16F10 melanoma cells; experiment: MARCKS phosphorylation by western blot with phospho-antibody probing; type: cell-based; settings: murine Cystatin C overexpressing clone cc6 B16F10 melanoma cells vs control
Description: as §1
For analysis of B16 melanoma proteins, melanoma cell cultures were lysed with lysis buffer and extracts were centrifuged at 10K rpm for 5 minutes. Protein was measured by Lowry assay and 40 ug of protein was loaded per lane on 10% SDS-PAGE gels for analysis. After electrophoresis, the proteins were transferred to PVDF membranes which were first blocked with 2% BSA in TBST buffer. […]

Molecule: RQIKIWFPNRRMKWKKAYRKQLVAGVNYFFDVH [penetratin linked to active peptide]
- growth of human 1205 Lu melanoma cell line [1]: significantly inhibits

Molecule: YRKQLVAGVNYFFDVH (listed as Mus musculus) [therapeutic peptide, Therapeutic peptide derived from mouse Cystatin C with the first A substituted by Y]
- inhibition of protein kinase C (PKC) activity (protein kinase C (PKC)): inhibits
- inhibition of papain (papain): 20%

B1: Cystatin C: natural cysteine protease inhibitor; murine Cystatin C cDNA overexpressed from pcDNA3 plasmid in B16F10 melanoma cells (clone cc6) (protein, UniProt P21460 21-140, looked up)
Cystatin-C: ATPKQGPRMLGAPEEADANEEGVRRALDFAVSEYNKGSNDAYHSRAIQVVRARKQLVAGVNYFLDVEMGRTTCTKSQTNLTDCPFHDQPHLMRKALCSFQIYSVPWKGTHSLTKFSCKNA
- inhibition of migration (B16 melanoma cells): ~80%
- average level of MARCKS phosphorylation, fold less [2]: 3-5 fold
